Here are results for four molecules from article PMC5702613 (Nature Communications, 2017).

The labels stand for the following.
B1: Danio rerio TRAF6 RZ1 (RING and ZF1, residues 50-159) (domain or fragment, UniProt Q6IWL4 50-159, looked up)
chain: MPPDQQGYDVEFDPPLESKYECPICLMGLRSAVQTPCGHRFCDSCIRKSIRDTGQKCPVDNEVLLEEQLFPDNFAKREILSLTVKCSNFGCSEKMELRQLEKHLSQCRFA
notes: TRAF6, Danio rerio, residues 50-159 (RING and ZF1), 13.7 kDa, in pET24b; also called DrRZ1; source: E. coli BL21 (DE3), purified (HisTrap, size exclusion)
B2: Homo sapiens TRAF6 RZ3 (RING domain and first three zinc fingers, residues 50-211) (domain or fragment, UniProt Q9Y4K3 50-211, looked up)
chain: MEEIQGYDVEFDPPLESKYECPICLMALREAVQTPCGHRFCKACIIKSIRDAGHKCPVDNEILLENQLFPDNFAKREILSLMVKCPNEGCLHKMELRHLEDHQAHCEFALMDCPQCQRPFQKFHINIHILKDCPRRQVSCDNCAASMAFEDKEIHDQNCPLA
notes: TNF receptor-associated factor 6 (TRAF6), human, residues 50-211 (RING and ZF1-3), 20.0 kDa, in pET21d; also called HsRZ3; wild-type HsRZ3; source: E. coli BL21 (DE3), purified (HisTrap, size exclusion)
B3: Danio rerio TRAF6 RZ3 (residues 50-213) (domain or fragment, UniProt Q6IWL4 50-213, looked up)
chain: MPPDQQGYDVEFDPPLESKYECPICLMGLRSAVQTPCGHRFCDSCIRKSIRDTGQKCPVDNEVLLEEQLFPDNFAKREILSLTVKCSNFGCSEKMELRQLEKHLSQCRFATAPCPQCQESVPISHLDEHKSQHCLQRIMTCPDCAGSFVYAVKQNHEQFCPFAN
notes: TRAF6, Danio rerio, residues 50-213 (RING and ZF1-3), 19.7 kDa, in pET24b; also called DrRZ3; D. rerio RZ3 TRAF6; source: E. coli BL21 (DE3), purified (HisTrap, size exclusion)
B4: Ubc13 (C87K, K92T, K94Q), the E2 moiety of the Ubc13~Ub conjugate (enzyme)
chain: MAGLPRRIIKETQRLLAEPVPGIKAEPDESNARYFHVVIAGPQDSPFEGGTFKLELFLPEEYPMAAPKVRFMTKIYHPNVDKLGRIKLDILTDQWSPALQIRTVLLSIQALLSAPNPDDPLANDVAEQWKTNEAQAIETARAWTRLYAMNNI
modifications: isopeptide-linked to ubiquitin (C87K allows the stable isopeptide link)
notes: Ubc13 (also called Ube2N), E2 enzyme, with C87K, K92T and K94Q; Stands in the structures only as the Ubc13 moiety of the conjugate m4; also called Ube2N; not shown: GST, N-terminal, cleaved

For data set [1], the target named is T1, ubiquitin (wild-type), the ubiquitin moiety of the Ubc13~Ub conjugate (UniProt P0CG48 1-76, isopeptide-linked to Ubc13).
T1 construct: ubiquitin, wild-type, expressed untagged; Stands in the structures only as the ubiquitin moiety of the conjugate m4; In the activity assays labelled or mutated ubiquitins (Cy3-Met-Cys-ubiquitin K63R, D77 ubiquitin) were used; source: E. coli BL21 (DE3), untagged, purified (HiTrap SP, Superdex 75)
Kind of data set: crystal structure; DrRZ1-Ubc13~Ub complex, 3.4 Å, C222(1); sodium citrate, 100 mM Bis-Tris propane, 17-23% PEG 3350. The note with it: both partners purified.

The target of data set [2] is T2, isopeptide-linked Ubc13-ubiquitin conjugate (Ubc13 C87K, K92T, K94Q linked to wild-type ubiquitin) (UniProt P61088 1-152; P0CG48 1-76, C87K | K92T | K94Q, isopeptide-linked to ubiquitin (C87K allows the stable isopeptide link) | isopeptide-linked to Ubc13).
T2 construct: Ubc13 (also called Ube2N), E2 enzyme, with C87K, K92T and K94Q; ubiquitin, wild-type, expressed untagged; Two chains joined covalently by an isopeptide bond; also called Ubc13~Ub conjugate; source: proteins from E. coli BL21 (DE3); conjugated in vitro with E1 and ATP, purified (Superdex 75); not shown: GST, N-terminal, cleaved
Described as above. Conditions: both partners purified.

Data set [3] concerns the target B4. The description is as above. Conditions: both partners purified.
Data set [4] concerns the molecule itself. The description is as above.
Data set [5] concerns the target T2, isopeptide-linked Ubc13-ubiquitin …. Put plainly: pull-down; GST-fused Uev1A on resin mixed with TRAF6, Ubc13 and Ubc13~Ub conjugates; PBS, 0.2% TWEEN 20, 1 mM DTT, 4 °C, 1 h; Coomassie-stained SDS-PAGE. Conditions: both partners purified.
For data set [6] the target is unchanged. Put plainly: SEC; DrRZ3 and Ubc13~Ub at 250 µM, alone or mixed, Superdex 200 10/300, 20 mM Tris-HCl pH 7.5, 150 mM NaCl; fractions on 16% SDS-PAGE. Conditions: both partners purified. A general note: SEC sorts molecules by how far they enter the pores of the column.
Data set [7] deals with T1, ubiquitin (wild-type), the ubiquitin …. Kind of data set: crystal structure; DrRZ3-Ubc13~Ub complex, 3.9 Å, P4(2)2(1)2; 100-200 mM Na/K tartrate, 11-15% PEG 3350, 100 mM Bis-Tris propane pH 7.5. Conditions: both partners purified.
Data set [8] deals with the molecule itself. Described as above.
In data set [9] the target is B3. The description is as above. Conditions: both partners purified.

As usually defined, the stoichiometry N is a count of units in the complex or per binding partner.

For the molecule B1, the binding result in data set [1], in data set [2] and in [3] was “binds” each time. The “stoichiometry N” value in [4] was determined as 2.
Take B2: in data set [5], the binding result was “binds”.
Take B3: the binding result in data set [6] and in data set [7] was “binds” each time. For the same molecule, in data set [8], the “stoichiometry N” value was 2.
B4: the binding result in data set [9] and in [1] was “binds” in each case.
